Experimental data reported in the supplement of paper PMC10567573.

B1: RAB40B (parent)
chain: YSLTTSSTHKRSSLRKVKLVRPPQ

Variants of: B1
Assay: protein stability index of a GFP-peptide fusion (GPS, HEK-293T) (PSI 1-6); higher = more stable
Conditions: c terminus: a fixed tail appended
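Also: lentivirally expressed fusions sorted by FACS into six bins by GFP to DsRed ratio, PSI derived from sequencing read proportions per bin multiplied by bin number.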

Protein stability index: each site, then its substitutions
L3: A 3.88 | N 3.3 | D 3.7 | W 2.02 | E 3.94 | S 3.13 | P 2.96 | Q 3.31 | C 3 | M 2.97 | V 3.17 | I 2.88 | H 3.06 | G 3.18 | F 2.57 | Y 2.24 | K 3.43 | T 3.08 | R 3.34
S2: N 2.96 | W 1.64 | Y 1.93 | P 2.74 | T 2.81 | R 3.56 | Q 2.74 | V 2.38
S7: V 2.7 | C 2.92 | N 2.98 | G 3.23 | D 2.94 | I 2.6 | W 2.24 | Y 2.35 | R 2.62 | A 2.84 | K 3.11 | T 2.81 | E 3.34 | M 2.42 | H 3.07 | F 2.27 | L 2.81 | Q 2.9 | P 3.47
S6: F 2.38 | E 3.57 | H 3.42 | G 3.34 | N 2.77 | T 3.29 | C 2.95 | I 2.58 | W 2.17 | Q 2.92 | K 3.33 | L 2.93 | Y 2.48 | M 2.62 | P 2.63 | A 2.88 | R 2.96 | V 2.83 | D 3.05
T8: L 2.43 | K 3.02 | N 3.4 | G 3.71 | C 2.8 | Q 3.26 | A 2.82 | S 2.89 | M 2.98 | H 2.76 | I 2.63 | R 2.57 | E 3.51 | W 2.49 | Y 3 | D 3.32 | F 2.63 | V 2.53 | P 3.38
T4: A 3.06 | S 3.38 | K 3.33 | V 2.7 | I 2.53 | D 3.85 | W 1.35 | F 1.77 | M 2.55 | P 3.16 | Y 2.17 | E 3.52 | R 3.33 | H 2.81 | G 3.33 | N 3.31 | L 3.26 | Q 3.82 | C 2.48
T5: N 3.83 | G 3.25 | S 3.07 | H 2.81 | W 1.45 | A 3.48 | Y 2.53 | I 1.86 | Q 3.44 | L 2.91 | M 2.97 | P 3.05 | C 2.62 | D 3.4 | V 2.79 | R 3.43 | K 3.2 | F 2.05 | E 3.62
K10: S 3.02 | H 2.68 | Y 3.05 | L 2.81 | E 3.67 | T 2.43 | N 2.85 | I 2.02 | F 2.62 | Q 2.3 | W 1.89 | D 3.23 | V 2.55 | G 3.21 | A 3.14 | C 2.3 | M 3.3 | R 3.18 | P 2.92
R11: F 2.32 | C 2.59 | D 3.4 | E 3.33 | A 3.68 | G 2.83 | H 3.15
H9: C 2.72 | S 3.42 | T 3.32 | W 1.82 | G 3.23 | E 2.72 | V 2.65 | P 3.08 | F 2.91 | Y 2.38 | D 3.22 | Q 3.62 | I 2.61 | R 3.29 | M 2.52 | L 3.26 | A 2.75 | K 3.29 | N 3.11
